Data published in patent US20190233847.

What was measured:
[1] = target: cpCas9-1011 circular permutation: residues 1012-1368, (GGS)n linker, then 1-1011 (Streptococcus pyogenes) (UniProt Q99ZW2); assay: cell_activity; details: enrichment in RFP repression FACS screen, E. coli
[2] = target: cpCas9-1017 circular permutation: residues 1018-1368, (GGS)n linker, then 1-1017 (Streptococcus pyogenes) (UniProt Q99ZW2); assay: cell_activity; details: enrichment in RFP repression FACS screen, E. coli
[3] = target: cpCas9-1042 circular permutation: residues 1043-1368, (GGS)n linker, then 1-1042 (Streptococcus pyogenes) (UniProt Q99ZW2); assay: cell_activity; details: enrichment in RFP repression FACS screen, E. coli
[4] = target: cpCas9-1250 circular permutation: residues 1251-1368, (GGS)n linker, then 1-1250 (Streptococcus pyogenes) (UniProt Q99ZW2); assay: cell_activity; details: enrichment in RFP repression FACS screen, E. coli
[5] = target: cpCas9-1283 circular permutation: residues 1284-1368, (GGS)n linker, then 1-1283 (Streptococcus pyogenes) (UniProt Q99ZW2); assay: cell_activity; details: enrichment in RFP repression FACS screen, E. coli
[6] = target: cpCas9-182 circular permutation: residues 183-1368, (GGS)n linker, then 1-182 (Streptococcus pyogenes) (UniProt Q99ZW2); assay: cell_activity; details: enrichment in RFP repression FACS screen, E. coli
[7] = target: cpCas9-200 circular permutation: residues 201-1368, (GGS)n linker, then 1-200 (Streptococcus pyogenes) (UniProt Q99ZW2); assay: cell_activity; details: enrichment in RFP repression FACS screen, E. coli
[8] = target: cpCas9-231 circular permutation: residues 232-1368, (GGS)n linker, then 1-231 (Streptococcus pyogenes) (UniProt Q99ZW2); assay: cell_activity; details: enrichment in RFP repression FACS screen, E. coli
[9] = target: cpCas9-271 circular permutation: residues 272-1368, (GGS)n linker, then 1-271 (Streptococcus pyogenes) (UniProt Q99ZW2); assay: cell_activity; details: enrichment in RFP repression FACS screen, E. coli
[10] = target: cpCas9-311 circular permutation: residues 312-1368, (GGS)n linker, then 1-311 (Streptococcus pyogenes) (UniProt Q99ZW2); assay: cell_activity; details: enrichment in RFP repression FACS screen, E. coli
[11] = target: subset of circular permuted dCas9 proteins (CPs) with a TEV linker (ENLYFQ\S) between the N & C termini

## RFP-targeting guide RNA ; RFP reporter target
[1]
  binding signal (log2 fold change): 17.3
[2]
  binding signal (log2 fold change): 17
[3]
  binding signal (log2 fold change): 17.8
[4]
  binding signal (log2 fold change): 18.1
[5]
  binding signal (log2 fold change): 18
[6]
  binding signal (log2 fold change): 17.1
[7]
  binding signal (log2 fold change): 17.7
[8]
  binding signal (log2 fold change): 17.2
[9]
  binding signal (log2 fold change): 16.7
[10]
  binding signal (log2 fold change): 15.6

B1: Tobacco Etch Virus (TEV) protease (protein)
chain: GESLFKGPRDYNPISSTICHLTNESDGHTTSLYGIGFGPFIITNKHLFRRNNGTLLVQSLHGVFKVKNTTTLQQHLIDGRDMIIIRMPKDFPPFPQKLKFREPQREERICLVTTNFQTKSMSSMVSDTSCTFPSSDGIFWKHWIQTKDGQCGSPLVSTRDGFIVGIHSASNFTNTNNYFTSVPKNFMELLTNQEAQQWVSGWRLNADSVLWGGHKVFMSKPEEPFQPVKEATQLMNELVYSQ
[11]
  western blot of linker cleavage: the CPs were cleaved at the correct location when an active TEV protease was present in the cell
